Source: the DeepSol protein solubility set

experiment: soluble on expression in E. coli; label from the status in PepcDB or PDB records

Row | Sequence | soluble on expression in E. coli
1 | MGSDKIHHHHHHMLIYHYTTVDTFLKILDSKAIWASDLSKMNDPQEFTIGIELIKKFYQKKFPDLLHWFENDRFVGLDNEQLLLGCSFSENPDDLSQWRAYGDDGKGVVIGINRRILSASNTLTIPAFYKKDERTASFVHFHKVIYDKQEFENSVKELLDNIGDFINDTVESFKLSIGLSRLACSFKSDFYKTEQEIRAILEHSKRSDIYLDESLKKHKLFDVKFRLSQFGLVPYCKVNLSNADASSIQTVKLGPKCNISKKDLEFMLLATGNKDILVSTSAGQYR | not soluble
2 | MNIVSTSVALLLAAASAEVENRKSSNATEVNMTETAQIENHPYVGMWVTGDGHIRQELLPNGRYDEARGKRKSAYQGRYEVKGNHIDYWDDTGFTADGEFVDDVLHHGGMIFYRQK | not soluble
3 | MGSDKIHHHHHHMLKQLYLTVLRWRPYKHKKVKIVYIMSFPRNDGHLIEQLEQHYHGMIIVLYTKNCQSYAASLNQKGIKTILFDKKTLLITTAISYLKSAPLIFVDNYFPELAILKKKQVVIQLWHANGALKQFGWGAYHTKHRSSKDQIRFQKVYDKMNYFIVNSLKMEAIFRNNYRLENAQFCHFGSPRLAYLEKLEVGETNQNNKVLYAPTYREGMNEMMLVINQAIKAFSAMPNFHFYMKLHPSIQLDAIELPRNVSIWEKHIFESFSEIGYLITDYSSVVFEYMHVKEQPNILFFCPDLEKYALNPGIEPDFFEYLPGPLVENEKQLIVALSNFSINSYKDNITRINEEWNQYQSKETINKIVELVERILGGFCEK | not soluble
4 | MSLKTGRSNIIAFIVPDQNPFFTEVLTEISHECQKHHLHVAVASSEENEDKQQDLIETFVSQNVSAIILVPVKSKFQMKREWLKIPIMTLDRELESTSLPSITVDNEEAAYIATKRVLESTCKEVGLLLANPNISTTIGRKNGYNKAISEFDLNVNPSLIHYSDQQLGTNAQIYSGYEATKTLLSKGIKGIVATNHLLLLGALQAIKESEKEIKKDVIIVGFDDSYWNEIYTPKLTVISQPVKEMGQVAAKMIYKLIKGKDVTSIKLSTKLIIRESCSFNEGHHHHHH | soluble
5 | MSLCAPNTGRFLLTGTPLPMLSYRHSFHAGNHADVLKHTVQSLIIESLKEKDKPFLYLDTHAGAGRYQLGSEHAERTGEYLEGIARIWQQDDLPAELEAYINVVKHFNRSGQLRYYPGSPLIARQLLREQDSLQLTELHPSDYPLLRSEFQKDSRARVEKADGFQQLKAKLPPVSRRGLILIDPPYEMKTDYQAVVSGIAEGYKRFATGTYALWYPVVLRQQIKRMIHDLEATGIRKILQIELAVLPDSDRRGMTASGMIVINPPWKLEQQMNNVLPWLHSKLVPAGTGHATVSWIVPEEGHHHHHH | soluble
6 | MRNKVLIVLAVIAGALILKSCGEPYSGAKETVGEFMEEIAEGEGRDAIKYLYPAYRDELAKNFKLPVQFTEMKPSEVLACVLSTMGRNIDEVEIKKAIAVNPNTANVVVKVEDKEGIEKFFSFTVVKEGDKWYIAKIEKYIPQVGR | not soluble
7 | MPESVAVTGGNGRIGKHVLDHLTTAGYRTVNLSRGKCDEAHSDAYIKTDLLDAGELYGALAKSDADTVVHLGMIPTPDQTPGYRTYESNVMSSYHVLEAAGELGIDTVALASSFSAIGGGFEPDLITVDYLPIDEDHRLTPSNPYAMGKQTLEIAADGFARRSTDAPETITSLRFPWVVDDDLAQETFVEADRTLAGLRNSDHFHTQRNTLCGYVHVTDAVALVEAAIEASFAGHERLWVSAPDTSAETPSAELAAELYSDADYRGQTGDDGSPYTALIDTTKAERLLGWEPTWNWRQLA | not soluble
8 | GAMDPMIIRGIRGARINNEIFNLGLKFQILNADVVATKKHVLHAINQAKTKKPIAKSFWMEILVRASGQRQIHEAIKIIGAKDGNVCLICEDEETFRKIYELIGGEIDDSVLEINEDKERLIREIFKIRGFGNVVERVLEKIALIELKKE | soluble
9 | MAHHHHHHMNDIYARRLAQATMFHQLMRCHGTLWAATQVTKEQMDYNFIREEFMRVNGRRAMPLLLGAAANENLHQLHLSHLSEHCAWGESARALAVQRQTPLSQRVAALGRMAETIHQVKTASTVQNLFNEQISCMEGISSFEEEPLIEGE | not soluble
10 | MAHHHHHHMIDEKSKMYSKNDEFNVKKEMDMNLKCDNVNLDIWNTSFLNNETLNEDIFIHIGNKLLKMYYTTNHNIPSETLYSLLYEMKNGYNNVPYHNSIHAAMVTHHCNVLVSNLNTANILRDNELGALFVASLGHDIGHFGRTNIFLKNCCNFLSIIYNDKSILENYHCSYLFNILLKDENNIFKNEDPKCLLALRQQIIELILATDMSKHIKILAQFRIKSIKIKSYIEKNIILCLKMIIKAADLSHNCVDWSEHYQWVKRLVNEFYYEGDELFQMGYKINPLFDRNCHNNFIQIQRTFLKELVYPLIISLKTLDNTSITQDMINNVKRNYSKWTKIEKCQIKKKKYLNELLCNIPDNWARVYYPNLNIY | not soluble
11 | NSAAIWGEGDVSALQSDTESGAYIEESSMVAADPLADYLSKPKLEALIASTKKQMLAAAKELDFLEAARLRDEAARLEKKLEQLTA | not soluble
12 | MQDRSCYKLTQEGERLFRMQKYEKGIDLLKKALEVGTDDFSLLSAIYCQLGNAHTMLKDYEQALKFHTYDILVERLLGNKEGEAKSCANLGNIFKMKGAYNDALTFTFKQLDFAEELGDRVLKSRAYYNIATIYVERGRCTKLEAAEEKNDAKNAEATSDFENAAKYFMLNLEMSEKSEDALTMGRCYGSLGNTYYCLGDYDQSIHFHKLRLELSQQYGDRASMRRAHANIANCHALKSNMPLAIQHYKLAYNLAIEIGNKTEEAQMAYSLANALYIGKEVQKAITYFQRHLKIARSLEDISGQLRSYYSLALSFNNLCERRKALYFLVLAKRSSLQVNDTSALTDIDNLLNEILEAGQEDVLVDDIELIIDESADPAPADIEHRELRLTYFQKRNIHDKPVNTPEDPLAEDRYEKEEFFDMLAKLQSKRMNDQRVDASVLSSNLDFRVRQVDTEPDNSSTDGSEVLIDLLLNAQGRRMDDQRAPFLPGLNPNGQIILRRLNTDPGNEELDEHLVEWLMRVQGERLDEQRSELPPIKPEGQEEVDKKKEEDVTAIVMRMQAGRLEDQRAHLPNIPTSKN | not soluble
13 | MKIVEGVSLHLIKNQQFKTNHLTFRFSGDFNNKTVARRSLVAQMLVTANAKYPKVQEFREKLASLYGASLSTKISTKGLVHIVDIDIVFVKNTFTLEQENIVEQIITFLEDMLFSPLISLEQYQTSIFDTEKKN | not soluble
14 | MTNFQRARSEEQRAVRRQAILDTTAAMLEEMPVGEVSLNELSRRVGLAKSNVLRYFESREAILLELLDRAWQQWVADLPALVHAGVDQGAPVSRRAEQFAAVIAASLAGRQVLCDLLSAQAGVLEHNVSPQVAARYKRAAVANVADIAALAHQHLPELGASAPQLTAVMIMAVGAVWTHARPSPAMLSAYEADPSLTAFKLDFVTTLQEMLATLTAGTIARESA | not soluble
15 | MGSDKIHHHHHHMTLKITKSDEVIEVKNLCVTIYSQPGLGKTSLAFTASRPLLLDFDKGAHRAVDRKDVVQVEDWRDVAGISAGDLAAYDTIVIDTVGKALDTLSADIIRANSKLSYGGALNQQGWGQLGVRFSAFLKLLRSFGKDVVLISHMDEKADGDAIKERLKISGGSKDLVLTDSDVIARISIYNRERHLIFSPTETSFGKDPANIGAMPIPEASAETYATCLSDIITQIKEGMNALSEEQVQRKAEIDWFATKLPEMTSAEEINGVLGRAKKAGKDIQKMVVARAKELGFDFDPEAREYVDPSAALADELDDEIPEFDDADEPESPAMAAE | not soluble
16 | MSLTKLYYEDQYIKEFKGEIIEVKEIDGKFHVLLDQTAFFPGGGGQMGDLGLIDGIKVLDVYEEEGKVYHVLEKEPKKLKNLQCELDWERRFDGMQQHLGQHLLSGCFYDLFGANTCGFHLGKEISTVDIVGFLDEKTIREAEKEANRLIFENLEVKSYAPSKKELKKVKTRRALPKTDEEIRIVEIVGLDLNACCGVHPRNTRDLQVIKIRRWEKHKNATRIEYVAGNRAVSEGHHHHHH | soluble
17 | GPGSMSEELILQWAKRVSDAEEELHRMEEDINAVKQQRKLLKADIRKYEDVVASEKCDLLTSLERVEAQAKDLGAQCEATLTEKDRVEAEYMATLDAYENLHFLVREIKDAEEHLQSRDDLEACLQRESVTWAEEEHTLRRKLHELQQQQAQARRAQEAEVRELEAQLSNVEQRQRDERAGRCVEVAQAARRVVHSSRQPTPASPKPVTSAEEDAFVSANAGGAMPIRSAPLKSCLKTPVNGSTSGNAAPTAPRHTTAASAPVSRCASQSLVSDAAASGVQRQGVDGGDQPSLRLLQEMRAYSYGAPCKAGARKREFLGDATNNQ | soluble
18 | MGTMVFVNFPVADVQRSTAFYEKLGFKKNEEFSTEEASSMMWDDQFWIMLLNHDFYGKFIQEKQIIDAQTTSGALISFSLESAEAVKQFGETAKANGGNCYRVDMGIPEEQMYGLEVQDLDGNSLEPVWMKM | not soluble
19 | MFFAIILLVHTILLPSTLLYQCATAKRPANQRKSQRSTKSRKSSRRSRRRNGRSRKSSRSGKSSRSSKSGRSSKSSNSTKTTGSKSSKSSRSQRSNKSNKMVTNPKGFSDRKIRAAILADQKAAADAVKSQKLSSNNSSEKQLNAHNDNKISYVNVRVIPHELIFPPIGGMKHVRVKNSTGKPIAYMAKCSDNILFRINPVYGIIDTDRDAQINILRENGAAKHDKLVIVTTVHHDANKTAQHTFSQLNQGIENPNYNVNVVPLLTQ | soluble
20 | EKEKDTIAAEHKQEASVLLNLHRNKINYLIGETMARMTSLSIAIDRPVDIKKMQSILEKTFDSEPRFSGLYFLNAKGDVTASTTELKTKVNLADRSFFIKAKETKKTVISDSYSSRITGQPIFTICVPVLDSKRNVTDYLVAAIQIDYLKNLINLLSPDVYIEVVNQDGKMIFASGQASHAEDQKPVSGYLDDISWNMKVYPNPVTIEELSKSL | soluble
21 | GRYTQIRFDEDIKRPFPELQQEFLSLLRKSVSEAVQGQKAGTFLSGGTDSSTLAGILTEVTGEPAKTYSIGFEATGYDEMHYARIAARHFATDHHEYYVTPDDVVETIPLIASVFDQPFGNASALPAYYCGRMARNDGLDLLLGGDGGDELFGGNVRYAKQYIFSLYDKIPAPLRNYLLSPFILSLPENKGPKLLRKARSYVAQATVPMPHRMETYNLLAHYGFETVFSPELLAKIDTAQPALLIERTYQDVSHARSLINRMLAFDWKFTLADNDFPKVVQACHLAGMEVAFPFVNDEILAFSLALPPEQKLKGTQLRYFFKQALRGFLPDEIITKQKQGFGLPFGVWLQTHRPLREIAADSLSDLKSRNIIRTDFIDQLLDQHLHEHASYHGTMVWLLMMLEYWFKQH | not soluble
22 | AIAQRFLDSISAATQAKSPAEHETLVAMADLYAIITCVEYLERAWRANAVSDEDYTRNCSRLIAQFRATRQLVMDDVPSVISFLEEYHLAARAAMNRLQVGVPATVEHANSSDETRRRNFTAAAIQATEAFLTFRDALELGERSVDRLLPYLREILLVLGRMGAVFGTADGDATVQRERIVQWVRRLDAMHAYEQITEEDKRQLAHDVDTLYDTFRRRVGELEM | soluble
23 | MSETIEIDELVFSVKRSTRRRTVGVTVERDKSLVAHLPQGVALDVATRLIASKLLWVHQKLAEHGETARDDVFRIPEFVDGEGFHLLGKHYRLKLVDVPKNVTGVPSVRFEGDRILLRREQAASGGKRIEEYYTRAAHPYLNETVQRWKRIVGVEPGRFVQVMDLGYRWGSCSEDGTLNFHWRTMQLPPRIIEYVVVHELVHIKVPNHSEKFWKMIGSVMPDYESRKAWLKQKGGEL | soluble
